Laboratory results as given in PMC314469, “Protein Interaction Networks by Proteome Peptide Scanning” (PLoS Biology, 2004).

T1: Boi1 SH3 (BOI1_YEAST), P38041
T1 chain: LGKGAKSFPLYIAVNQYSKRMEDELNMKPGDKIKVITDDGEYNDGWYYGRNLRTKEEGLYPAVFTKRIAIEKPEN

T2: Boi2 SH3 (BOI2_YEAST), P39969
T2 chain: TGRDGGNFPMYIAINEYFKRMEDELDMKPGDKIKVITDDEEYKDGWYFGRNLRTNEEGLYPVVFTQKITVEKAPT

T3: Myo5 SH3 (MYO5_YEAST), Q04439
T3 chain: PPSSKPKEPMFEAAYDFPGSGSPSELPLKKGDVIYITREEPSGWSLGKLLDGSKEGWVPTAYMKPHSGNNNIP

T4: Rvs167 SH3 (RV167_YEAST), P39743
T4 chain: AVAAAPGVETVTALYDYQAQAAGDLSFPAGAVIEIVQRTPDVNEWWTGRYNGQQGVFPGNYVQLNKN

T5: Yfr024 SH3 (LSB3_YEAST), P43603
T5 chain: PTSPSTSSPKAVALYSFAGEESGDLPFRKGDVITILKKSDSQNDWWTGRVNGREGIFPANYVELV

T6: Yhr016c SH3 (YSC84_YEAST), P32793
T6 chain: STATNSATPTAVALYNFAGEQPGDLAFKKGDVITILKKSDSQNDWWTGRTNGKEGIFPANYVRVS


Assays:
Assay in all cases: SPOT array
[1] = biological target: T1, Boi1 SH3 (BOI1_YEAST), P38041
[2] = biological target: T2, Boi2 SH3 (BOI2_YEAST), P39969
[3] = biological target: T3, Myo5 SH3 (MYO5_YEAST), Q04439
[4] = biological target: T4, Rvs167 SH3 (RV167_YEAST), P39743
[5] = biological target: Sho1 SH3 (SHO1_YEAST), P40073
Sequence of Sho1 SH3 (SHO1_YEAST), P40073 (P40073 295-366): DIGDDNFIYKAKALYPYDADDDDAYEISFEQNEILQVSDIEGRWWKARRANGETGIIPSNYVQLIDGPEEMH

[6] = biological target: T5, Yfr024 SH3 (LSB3_YEAST), P43603
[7] = biological target: T6, Yhr016c SH3 (YSC84_YEAST), P32793

normalised SPOT signal, Boehringer light units (BLU); mean over the file's lines of this peptide [1]	normalised SPOT signal, Boehringer light units (BLU); mean over the file's lines of this peptide [2]	normalised SPOT signal, Boehringer light units (BLU); mean over the file's lines of this peptide [3]	normalised SPOT signal, Boehringer light units (BLU); mean over the file's lines of this peptide [4]	normalised SPOT signal, Boehringer light units (BLU); mean over the file's lines of this peptide [5]	normalised SPOT signal, Boehringer light units (BLU); mean over the file's lines of this peptide [6]	normalised SPOT signal, Boehringer light units (BLU); mean over the file's lines of this peptide [7]	Binder
389	0.6	242	176	1230	191	12.1	KIIKKSSPSVPKEE [YNL265C 154-167]
201	20.2	155	127	359	120	42.3	KFFKREYPDIPMIA [YMR190C 828-841]
442	36.2	726	30.5	21.3	19.7	26.8	KHEPKKSPTTPALA [YDL220C 702-715]
235	3.2	366	206	33.5	267	17.5	KIVRRDYPSTPVIV [YOR019W 147-160]
74.9	4.7	138	102	14.8	93.1	20.3	KIVERGPPYPPDLR [YDR464W 649-662]
251	14	117	38.3	78.4	1160	134	KGVLKEYPMRPYGS [YCR068W 315-328]
198	21	681	187	47.2	490	43.5	KITKKLGPKLPKAS [YNL297C 1291-1304]
